Experimental data reported in paper PMC3668751, “Assembly of the Yeast Exoribonuclease Rrp6 with Its Associated Cofactor Rrp47 Occurs in the Nucleus and Is Critical for the Controlled Expression of Rrp47*” (The Journal of Biological Chemistry, 2013).

B2: Recombinant full-length His6-Rrp47 (natural protein, S. cerevisiae, UniProt P38801 1-184, looked up)
chain: MEDIEKIKPYVRSFSKALDELKPEIEKLTSKSLDEQLLLLSDERAKLELINRYAYVLSSLMFANMKVLGVKDMSPILGELKRVKSYMDKAKQYDNRITKSNEKSQAEQEKAKNIISNVLDGNKNQFEPSISRSNFQGKHTKFENDELAESTTTKIIDSTDHIRKASSKKSKRLDKVGKKKGGKK
notes: Rrp47 (also known as Lrp1), S. cerevisiae, full-length recombinant protein; On its own a non-globular homodimer (theoretical homodimer mass 50,920 Da with the tag); One copy stands in the heterodimer with Rrp6NT; also called His-Rrp47; Lrp1; source: for the complex, co-lysed with cells expressing Rrp6NT

How the values were obtained:
[1] = molecular target: the molecule itself; assay: cross-linking; 0.01% glutaraldehyde on ice, ~40 µM protein, 50 mM HEPES pH 7.6, 300 mM NaCl; SDS-PAGE and Western blot
[2] = molecular target: the molecule itself; assay: AUC; sedimentation velocity, 38,000 rpm, 20 °C, 50 mM Hepes pH 7.6, 500 mM NaCl, 0.25 and 1 mg/ml, absorbance at 280 nm, SEDFIT
[3] = molecular target: B2; assay: pull-down + SEC; E. coli cells expressing His6-Rrp47 or GST-Rrp6NT lysed together; Ni-NTA, then glutathione-Sepharose, then Superdex 200; 50 mM HEPES pH 7.6, 300 mM NaCl; ratio from densitometry of the Coomassie-stained SDS-PAGE of the peak fraction

B1: C-terminally truncated Rrp47NT protein (domain or fragment, S. cerevisiae, UniProt P38801 1-120, looked up)
chain: MEDIEKIKPYVRSFSKALDELKPEIEKLTSKSLDEQLLLLSDERAKLELINRYAYVLSSLMFANMKVLGVKDMSPILGELKRVKSYMDKAKQYDNRITKSNEKSQAEQEKAKNIISNVLD
notes: Rrp47 (Lrp1), S. cerevisiae, N-terminal domain; the discussion gives it as the first 120 amino acid residues; it probably carries a His tag like the full-length protein; also called N-terminal domain of Rrp47; Rrp47NT polypeptide
In the case of B1, the “stoichiometry N” value [1] is reported as 2.

In the case of B2, the “stoichiometry N” value [2] is reported as 2.

B3: GST-Rrp6NT (domain or fragment, S. cerevisiae, UniProt Q12149 1-211, looked up)
chain: MTSENPDVLLSRVINVVRAASSLASQDVDFYKNLDRGFSKDLKSKADKLADMANEIILSIDEHHESFELKEEDISDLWNNFGNIMDNLLEMSDHSLDKLNCAINSKSRGSDLQYLGEFSGKNFSPTKRVEKPQLKFKSPIDNSESHPFIPLLKEKPNALKPLSESLRLVDDDENNPSHYPHPYEYEIDHQEYSPEILQIREEIPSKSWDDS
notes: Rrp6, S. cerevisiae, N-terminal region (Rrp6NT, holds the PMC2NT domain); The preparation held some proteolytic fragments of the GST fusion; also called Rrp6NT domain; N-terminal region of Rrp6; source: E. coli, co-lysed with cells expressing His6-Rrp47; complex purified (Ni-NTA, glutathione-Sepharose, Superdex 200)
For B3, the “stoichiometry N” value [3] was 0.8 Rrp6NT per Rrp47.
